B1: human chorionic gonadotropin (hCG), highly purified, CR-125, NICHD (ligand)
chain 1: not shown
chain 2: SKEPLRPRCRPINATLAVEKEGCPVCITVNTTICAGYCPTMTRVLQGVLPALPQVVCNYRDVRFESIRLPGCPRGVNPVVSYAVALSCQCALCRRSTTDCGGPKDHPLTCDDPRFQDSSSSKAPPPSLPSPSRLPGPSDTPILPQ

How the values were obtained:
[1] = molecular target: B1; test: displacement of biotinylated-hCG by unlabeled hCG on transfected Sf9 cells, HRP-streptavidin ELISA
Experimental: A competitive binding assay was performed to determine whether hCG would bind to the chimeric protein containing both hLH-R-ECD and hCG-β-CTP. After 24 hr of transfection with recombinant baculovirus, Sf9 insect cells were incubated for 24 hr at 27° C. with 20 ng/μl of biotinylated-hCG and increasing concentrations of unlabeled hCG as the competitor. The Sf9 cells infected with the recombinant baculovirus containing ECD of LH-R alone was set up as the control. The binding of biotinylated-hCG on the surface of the Sf9 insect cells was examined by ELISA using horseradish peroxidase (HRP)-streptavidin conjugate.

[2] = molecular target: recombinant chimeric hLH-R-hCG-β fusion protein (full-length human lutropin hormone receptor, Arg-Ser linker, … (human)); test: cell-based or functional assay

| Binder | binding result [1] | intracellular cAMP, increase over baseline [2] [fold] |
| --- | --- | --- |
| recombinant chimeric protein hLH-R-ECD-hCG-β-CTP (extracellular domain of hLH-R, Gly-Thr linker, carboxyl terminal peptide of hCG-β) (receptor, The vector was pBlueBac4.5/V5-His; also called chimera 3; hLH-R-ECD/hCG-CTP) LPRALREALCPEPCNCVPDGALRCPGPTAGLTRLSLAYLPVKVIPSQAFRGLNEVIKIEISQIDSLERIEANAFDNLLNLSEILIQNTKNLRYIEPGAFINLPRLKYLSICNTGIRKFPDVTKVFSSESNFILEICDNLHITTIPGNAFQGMNNESVTLKLYGNGFEEVQSHAFNGTTLTSLELKENVHLEKMHNGAFRGATGPKTLDISSTKLQALPSYGLESIQRLIATSSYSLKKLPSRETFVNLLEATLTYPSHCCAFRNLPTKEQNFSHSISENFSKQCESTVRKVSNKTLYSSMLAESELSGWDYEYGFCLPKTPRCAPEPGTLTCDDPRFQDSSSSKAPPPSLPSPSRLPGPSDTPILPQ | binds |  |
| B1 |  | ~6 |

From patent US20060073571A1 (CORNELL RESEARCH FOUNDATION, published 2006)
